# Results from US20050226876A1.
# Assays:
# [1] = molecular target: Fcγ receptors on human monocytes (FcγRI and RII); test: FACS on monocytes from human blood, antibody 10 µg/ml; no antibody: 8.5
# [2] = molecular target: Fcγ receptors on human granulocytes (FcγRII and RIII); test: FACS on granulocytes from human blood, antibody 10 µg/ml; no antibody: 1.2
# [3] = molecular target: human complement factor C1q (human) (UniProt P02745); test: C1q ELISA, antibody coated; background OD405 0.079
# [4] = molecular target: human complement factor C3 (from human pooled serum) (human) (UniProt P01024); test: C3 ELISA, antibody coated, human pooled serum; background OD405 0.098
# Chain of human complement factor C3 (from human pooled serum) (human) (P01024 23-1663 limits assumed): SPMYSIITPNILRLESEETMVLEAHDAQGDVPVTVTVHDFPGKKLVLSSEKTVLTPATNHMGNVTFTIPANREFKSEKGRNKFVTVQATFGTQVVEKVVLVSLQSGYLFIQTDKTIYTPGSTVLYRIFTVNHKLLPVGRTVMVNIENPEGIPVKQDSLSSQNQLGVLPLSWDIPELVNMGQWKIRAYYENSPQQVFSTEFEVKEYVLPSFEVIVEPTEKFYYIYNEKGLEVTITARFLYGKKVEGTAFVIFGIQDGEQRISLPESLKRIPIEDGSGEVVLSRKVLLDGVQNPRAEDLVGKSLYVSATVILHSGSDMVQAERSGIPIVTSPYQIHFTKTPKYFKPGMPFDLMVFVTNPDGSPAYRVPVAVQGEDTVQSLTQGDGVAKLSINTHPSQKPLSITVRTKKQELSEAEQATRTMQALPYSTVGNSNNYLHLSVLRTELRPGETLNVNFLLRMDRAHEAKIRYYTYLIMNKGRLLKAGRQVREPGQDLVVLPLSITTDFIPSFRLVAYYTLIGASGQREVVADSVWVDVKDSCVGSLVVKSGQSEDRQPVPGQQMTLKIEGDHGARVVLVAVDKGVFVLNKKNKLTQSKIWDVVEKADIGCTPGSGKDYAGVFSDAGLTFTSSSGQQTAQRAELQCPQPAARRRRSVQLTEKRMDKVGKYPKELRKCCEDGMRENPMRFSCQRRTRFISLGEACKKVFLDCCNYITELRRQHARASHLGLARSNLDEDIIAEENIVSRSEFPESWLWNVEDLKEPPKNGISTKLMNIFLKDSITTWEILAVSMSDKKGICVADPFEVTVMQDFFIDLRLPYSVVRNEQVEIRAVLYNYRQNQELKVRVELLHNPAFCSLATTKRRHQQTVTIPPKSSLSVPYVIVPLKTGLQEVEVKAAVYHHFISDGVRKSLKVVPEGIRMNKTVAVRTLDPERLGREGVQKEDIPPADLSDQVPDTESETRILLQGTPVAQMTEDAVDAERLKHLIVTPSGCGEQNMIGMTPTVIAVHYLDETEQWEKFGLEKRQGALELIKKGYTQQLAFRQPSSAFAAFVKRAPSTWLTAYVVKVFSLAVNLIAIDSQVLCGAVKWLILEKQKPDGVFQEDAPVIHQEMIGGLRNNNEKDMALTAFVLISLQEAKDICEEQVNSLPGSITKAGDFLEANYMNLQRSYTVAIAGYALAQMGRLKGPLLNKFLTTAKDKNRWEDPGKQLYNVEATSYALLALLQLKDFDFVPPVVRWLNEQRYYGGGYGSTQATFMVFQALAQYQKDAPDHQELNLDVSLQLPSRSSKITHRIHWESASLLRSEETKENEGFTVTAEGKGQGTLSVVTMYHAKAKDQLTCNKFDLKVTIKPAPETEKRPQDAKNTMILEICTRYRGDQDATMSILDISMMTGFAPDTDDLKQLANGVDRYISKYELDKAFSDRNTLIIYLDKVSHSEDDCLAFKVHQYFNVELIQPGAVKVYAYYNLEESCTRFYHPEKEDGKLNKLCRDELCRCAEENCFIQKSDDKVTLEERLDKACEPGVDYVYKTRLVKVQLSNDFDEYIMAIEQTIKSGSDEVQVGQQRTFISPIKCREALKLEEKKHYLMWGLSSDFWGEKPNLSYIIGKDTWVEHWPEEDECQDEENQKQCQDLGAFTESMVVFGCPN
# [5] = molecular target: Fcγ receptor on human NK cells (FcγRIII) (human) (UniProt P08637); test: FACS on NK cells from human blood, antibody 10 µg/ml; no antibody: 0.03
# Chain of Fcγ receptor on human NK cells (FcγRIII) (human) (P08637 17-254): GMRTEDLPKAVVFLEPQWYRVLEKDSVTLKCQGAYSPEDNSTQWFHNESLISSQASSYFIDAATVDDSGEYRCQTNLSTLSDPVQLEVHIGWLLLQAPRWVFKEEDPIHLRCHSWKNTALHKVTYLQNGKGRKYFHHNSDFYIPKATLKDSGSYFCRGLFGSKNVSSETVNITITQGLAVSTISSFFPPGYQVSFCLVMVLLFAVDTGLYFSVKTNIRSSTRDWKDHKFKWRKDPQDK
# Chain of human complement factor C1q (human) (P02745 23-245 limits assumed, chain 1 of 3): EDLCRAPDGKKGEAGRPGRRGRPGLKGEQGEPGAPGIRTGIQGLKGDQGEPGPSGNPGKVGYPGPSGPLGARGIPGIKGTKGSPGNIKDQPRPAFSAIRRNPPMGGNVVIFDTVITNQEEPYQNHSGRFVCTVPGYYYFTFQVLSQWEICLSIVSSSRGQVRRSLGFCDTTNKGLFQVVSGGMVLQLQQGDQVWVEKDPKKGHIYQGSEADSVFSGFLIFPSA
# Chain of human complement factor C1q (human) (P02746 28-253 limits assumed, chain 2 of 3, further chain): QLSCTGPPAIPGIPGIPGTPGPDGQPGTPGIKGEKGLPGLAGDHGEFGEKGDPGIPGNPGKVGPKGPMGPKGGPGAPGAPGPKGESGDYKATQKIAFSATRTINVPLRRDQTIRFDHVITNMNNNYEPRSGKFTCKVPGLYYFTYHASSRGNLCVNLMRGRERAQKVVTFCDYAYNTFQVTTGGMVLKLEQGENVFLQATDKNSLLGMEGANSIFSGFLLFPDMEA
# Chain of human complement factor C1q (human) (P02747 29-245 limits assumed, chain 3 of 3, further chain): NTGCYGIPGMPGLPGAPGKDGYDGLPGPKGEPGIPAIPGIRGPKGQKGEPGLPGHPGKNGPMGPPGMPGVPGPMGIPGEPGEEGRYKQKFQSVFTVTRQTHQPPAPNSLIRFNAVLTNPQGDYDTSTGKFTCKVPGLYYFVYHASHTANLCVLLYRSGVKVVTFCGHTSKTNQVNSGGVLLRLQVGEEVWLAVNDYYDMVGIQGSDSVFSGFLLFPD
% monocytes binding antibody [1],% granulocytes binding antibody [2],Bmax (OD405 at 10 µg/ml) [3],Bmax (OD405 at 10 µg/ml) [4],% NK cells binding antibody [5],Substance
14.5%,1.6%,,,,HuMab 002 Fc variant IgG4v1 (S228P; L235E) (antibody)
9.4%,,0.222 OD405,0.182 OD405,0.06%,"human IgG4 (CLB, the Netherlands), negative control (antibody)"
